The chains are these.
B1: VH:VL chains; a variant is named by its letters at X, in order (parent)
chain 1: QVQLVQSGAEVKKPGASVKVSCKASGYTFTDYXMHWVRQAPGQGLEWMGXVNPNXXXTTYNQKFEGRVTMTTDTSTSTAYMELRSLRSDDTAVYYCARXNXLDXWGQGTTVTVSS
chain 2: DIQMTQSPSSLSASVGDRVTITCSVSSSVSSIYLHWYQQKPGKAPKLLIYSTSNLASGVPSRFSGSGSGTDFTLTISSLQPEDFATYYCQVYSGYPLTFGGGTKVEIK

The data set covers variants of B1. The data set is described as follows: yeast display scFab, FACS + sequencing. The method, boiled down: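 Heavy-chain CDR mutant scFab yeast surface library, FACS-sorted after labelling with biotinylated ovalbumin (260 μg/mL in PBSB, 3 h, room temperature) or soluble membrane proteins (130 μg/mL, 20 min on ice), plus anti-Myc. Gates collected the top 25% and bottom 10% of binders, and samples from two replicates were deep sequenced. Non-specific binding call: a sequence was positive if found in ≥3 of 4 positive samples (membrane protein and ovalbumin pooled) and no negatives, and negative by the converse rule.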
Turning to YAGGDFAY, the non-specific binding call is “no binding”.
YAEEGVGY: the non-specific binding call is reported as “binds”.
Under FAGEGAGV stands “no binding”; under AAEGDAAD, “no binding”.
Next, DAGGDAGD: “no binding”.
Next, YAAGSDVY: “no binding”; VAATADAV: “no binding”.
For the variant DAGGGAGD, the non-specific binding call is listed as “no binding”.
Next, DAGGASSS: “no binding”; DAGGASSV: “no binding”.
Under DAGGASSA stands “no binding”.
Next, YAGAAAVD: “binds”.
Regarding VAEKGDLS, the non-specific binding call was “no binding”.
As for DAARAVSS, the non-specific binding call is listed as “binds”.
FAEGSYAF: the non-specific binding call is “binds”.
Under YAARAAVD stands “binds”.
Under SAAGGASD chain 1 L45S stands “no binding”.
DAGEASAV: the non-specific binding call is “no binding”.
Take YAAGGDVA: the non-specific binding call is reported as “no binding”.
Under DAGGGAAV stands “no binding”; under VAEKGFLV, “binds”.
YAARGSAA: the non-specific binding call is “binds”.
Next, SAAGSVWY: “no binding”; YAAETDVF: “no binding”.
Next, DAGAADAV: “no binding”; DAEGDAGD: “no binding”.
Under DAGEAFSF stands “no binding”.
For the variant FAEGASSS, the non-specific binding call is recorded as “no binding”.
Next, FAGGGDAV: “no binding”.
Next, VAGGGAAV: “no binding”; YAAGSSWD: “binds”.
Consider VAGGDFGV, for which the non-specific binding call is recorded as “no binding”.
Under DAAKNDAV stands “no binding”.
On to VAGGDAAA, for which the non-specific binding call is listed as “no binding”.
Under SAERSAAF stands “no binding”.
Next, FAGGGAGS: “no binding”; FAGGGAGA: “no binding”.
With DAARGDSA, the non-specific binding call is on record as “no binding”.
Consider DAARGDVV, for which the non-specific binding call is recorded as “no binding”.
Under DAEGDDGA stands “no binding”; under SAGEGDWV, “no binding”.
Next, YAGGDDGA: “no binding”; YAGGGDGA: “no binding”.
Under SAARDFWV stands “no binding”; under VAEKGALA, “no binding”; under VAATADVA, “no binding”.
As for VAEKGDAA, the non-specific binding call is “no binding”.
Turning to SAAGADWS, the non-specific binding call is on record as “no binding”.
For the variant YAGGDSGV, the non-specific binding call was “no binding”.
Under DAGGGDAV stands “no binding”; under SAEATDLY, “no binding”; under VAEGDAAD, “no binding”.
Next, DAEGGSLD: “no binding”; SAARDAVA: “no binding”.
On to SAGEGDVF, for which the non-specific binding call is on record as “no binding”.
Under SAGEGDVY stands “no binding”; under VAAKNDGA, “no binding”; under DAAGASVD, “no binding”.
Under FAAGSYAV stands “binds”; under FAAETDVF, “no binding”; under DAATAYGS, “binds”.
Next, VAAKSAAA chain 1 R38K: “no binding”; YAEGGYGV chain 1 V68I: “binds”.
With SAAGGAGA chain 1 L45S, the non-specific binding call is recorded as “no binding”.
Under DAARGDGA stands “no binding”; under DAARGDGV, “no binding”; under SAAGGAAD chain 1 L45S, “no binding”.
Under SAGEGSLV stands “no binding”; under VAGGDYLV, “no binding”.
Next, VAERSFGV: “binds”.
For the variant FAATDSVS, the non-specific binding call is reported as “binds”.
Consider DAGGAAGV, for which the non-specific binding call is “no binding”.
As for DAGGAAGD, the non-specific binding call was “no binding”.
Next, AAGGDYVF: “no binding”; VAEKGAGD: “no binding”; DAGGADAY: “no binding”.
As to DAGGADAV, the non-specific binding call is “no binding”.
Under FAARSYGD stands “binds”; under YAATADSS, “no binding”; under VAEKGDWY, “no binding”.
Next, DAERTDGV: “no binding”; DAGGADGV: “no binding”.
Turning to FAAGSSGS, the non-specific binding call is recorded as “binds”.
Next, SAGGDYVF: “no binding”; VAARGDAA: “no binding”.
Under VAEKDDGS stands “no binding”; under DAARGSSV, “no binding”; under DAGAADGA, “no binding”.
Next, FAAKTAAA: “binds”; VAGAGDSV: “no binding”; YAAKSDGY: “binds”.
As for VAGGDALD, the non-specific binding call was “no binding”.
Under SAGGGAWV stands “no binding”; under VAGGDAVA, “no binding”.
Turning to VAGGDAVV, the non-specific binding call was “no binding”.
Under FAAGGAWA stands “binds”; under DAEKDSGA, “no binding”.
Next, YAEESSSA: “no binding”; AAEGGYAV: “binds”.
For the variant DAGGAAAV, the non-specific binding call is reported as “no binding”.
Next, DAGGAAAD: “no binding”; DAGGAAAA: “no binding”.
Take FAAGGAAS: the non-specific binding call is listed as “binds”.
Under VAATGVSD stands “binds”; under YAEESDGS, “no binding”; under YAEGASSF, “no binding”.
Under VAEEDAGY stands “no binding”; under SAGGGAGD, “no binding”; under DAGGAAVS, “no binding”.
Next, DAGGAAVA: “no binding”; DAAGAAGV: “no binding”; DAATADSS: “no binding”.
VAEATDLY: the non-specific binding call is listed as “no binding”.
Next, DAGGDDVY: “no binding”.
Under VAEAAVGD stands “binds”.
Under VAATASWV stands “no binding”.
For YAEATDLY, the non-specific binding call is recorded as “no binding”.
Take FAARAFGV: the non-specific binding call was “binds”.
Next, VAEKGSSA: “no binding”; YAEESDWV: “no binding”; YAARASGF: “binds”.
Under VAGAGYGA stands “binds”.
Next, YAGGDDSA: “no binding”; VAGAGAGA: “no binding”.
Take DAGGASLD: the non-specific binding call is given as “no binding”.
Next, YAEESSAD: “no binding”; YAEKDFGV: “no binding”; DAGGGAVY: “no binding”.
Next, DAGGGAVV: “no binding”.
Under DAGGGAVA stands “no binding”.
In the case of YAAKTAAA, the non-specific binding call is on record as “binds”.
Under YAGAGAVY stands “no binding”; under VAGGDDAV, “no binding”.
Next, DAAGADWY: “no binding”.
For YAEGDAAD, the non-specific binding call is given as “no binding”.
Next, FAAAGFVA: “binds”.
Under VAATAAGA stands “no binding”; under VAGGAYLY, “no binding”; under VAEKGDGV, “no binding”.
Under VAEKGDGA stands “no binding”; under DAARGDAA, “no binding”.
On to DAARGDAV, for which the non-specific binding call is recorded as “no binding”.
Under DAEATSWV stands “no binding”; under YAARAALD, “binds”.
On to VAGGGAGV, for which the non-specific binding call is given as “no binding”.
With VAGAGDVV, the non-specific binding call is “no binding”.
SAAGGDVA chain 1 L45S: the non-specific binding call was “no binding”.
Next, YAGGDDAV: “no binding”; YAGGDDAA: “no binding”; YAGEGDGA: “no binding”.
Under YAAGGDGV stands “no binding”; under YAGEGFGV, “no binding”.
As to DAGGASGV, the non-specific binding call is reported as “no binding”.
Under YAARGAWD stands “binds”; under VAARGFGS, “no binding”; under YAEESAGD, “no binding”.
For DAEEDAGY, the non-specific binding call is “no binding”.
As for SAAGGAAV chain 1 L45S, the non-specific binding call is given as “no binding”.
For the variant FAAGGSGD, the non-specific binding call is “binds”.
Next, DAEATDGA: “no binding”; DAGGDDGA: “no binding”; DAERDSGV: “no binding”.
Under SAGEGDGV stands “no binding”.
Regarding VAGGDDGF, the non-specific binding call is listed as “no binding”.
Under VAGGDDGA stands “no binding”; under YAAGSFGY, “binds”; under YAAGGFAY, “binds”.
Next, DAETAAAA: “no binding”; SAEGGSSA: “no binding”; FAEGDDVV: “no binding”.
FAEGDDVY: the non-specific binding call is reported as “no binding”.
Under FAEGDDVA stands “no binding”; under SAEKDDGS, “no binding”.
Next, YAGETFGA: “binds”; VAEKGSGA: “no binding”.
Next, VAEGGYAV: “binds”; YAEKDAGD: “no binding”.
FAEGAAAV: the non-specific binding call is recorded as “no binding”.
Under DAARGAAA stands “no binding”; under VAAAGAAV, “no binding”.
Next, DAEATSLV: “no binding”.
Under DAGEGFVA stands “no binding”; under DAGAAAGD, “no binding”; under SAEEDDVY, “no binding”.
With VAATADSS, the non-specific binding call is listed as “no binding”.
For FAEGDDSA, the non-specific binding call is “no binding”.
Take YAAGASVD: the non-specific binding call is reported as “no binding”.
Under AAARNFLF chain 1 V68I stands “binds”.
DAARGAGD: the non-specific binding call is recorded as “no binding”.
Under VAGGDDVF stands “no binding”; under VAGGDDVA, “no binding”; under SAEGDAAD, “no binding”.
Next, YAAAAFGY: “binds”.
Next, VAEKGDVF: “no binding”; AAAGGSWS: “binds”.
Consider DAGEAAGD, for which the non-specific binding call is “no binding”.
Next, DAGAADVV: “no binding”.
For DAEESDGA, the non-specific binding call is reported as “no binding”.
Next, DAEATDVA: “no binding”; SAAGGDGV chain 1 L45S: “no binding”; YAGEASAV: “no binding”.
Next, DAEKGAWA: “no binding”.
Under YAARGAAV stands “binds”.
YAEESSGV: the non-specific binding call was “no binding”.
Turning to YAAKNDGA, the non-specific binding call was “no binding”.
Next, YAGGAYLY: “no binding”.
On to VAGGDDWV, for which the non-specific binding call is “no binding”.
As to VAETAAAA, the non-specific binding call is given as “no binding”.
Take VAEKGFGA: the non-specific binding call is “no binding”.
Under AAEKDDLA stands “no binding”; under FAGGDYGS, “binds”.
Next, YAEESDVA: “no binding”.
Next, FAGGGDGA: “no binding”; VAGGDAGV: “no binding”.
Take DAGGADWA: the non-specific binding call is “no binding”.
Under YAGAGSAD stands “no binding”; under FAEGAAGD, “no binding”.
Under VAARGAAV stands “no binding”.
On to DAGGADVA, for which the non-specific binding call was “no binding”.
Next, DAGGADVY: “no binding”; FAGGGASD: “no binding”; FAARDSGA: “no binding”.

These data come from the emibetuzumab library of Makowski et al. (2022).
